The text below walks through data of publication PMC6882858, “Seryl tRNA synthetase cooperates with POT1 to regulate telomere length and cellular senescence”.

The series concerns the target SerRS (seryl-tRNA synthetase) (human, UniProt P49591 1-514). Nature of the series: EMSA; 5 mM MgCl2, poly(dG-dC); 20 mM Tris-HCl pH 8.0, 60 mM KCl, 5 mM MgCl2, 0.1 mg/mL BSA, 10 ng/uL poly(dG-dC), 1 mM DTT, 0.8 pmol labeled DNA, 30 min, room temperature; 5% native PAGE. Particulars: protein: recombinant; tags: His6 (pET20b; Ni-NTA); chain copies: 2; label: 5' 32P; blunt.

SerRS (seryl-tRNA synthetase), sequence (P49591 whole entry): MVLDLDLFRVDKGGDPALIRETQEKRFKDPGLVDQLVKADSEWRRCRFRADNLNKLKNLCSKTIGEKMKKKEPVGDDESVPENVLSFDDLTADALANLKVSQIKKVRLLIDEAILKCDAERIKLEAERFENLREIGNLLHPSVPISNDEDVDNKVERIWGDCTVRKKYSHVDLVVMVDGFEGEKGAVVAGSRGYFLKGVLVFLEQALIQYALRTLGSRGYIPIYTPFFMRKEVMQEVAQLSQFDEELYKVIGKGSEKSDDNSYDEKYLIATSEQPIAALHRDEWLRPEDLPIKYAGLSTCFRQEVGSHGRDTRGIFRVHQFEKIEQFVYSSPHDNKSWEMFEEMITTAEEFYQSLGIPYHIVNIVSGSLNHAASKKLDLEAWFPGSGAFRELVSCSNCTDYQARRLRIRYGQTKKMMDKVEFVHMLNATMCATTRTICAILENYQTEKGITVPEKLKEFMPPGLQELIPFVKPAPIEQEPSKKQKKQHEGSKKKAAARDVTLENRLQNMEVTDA

B1: VEGFA promoter (dsDNA)
DNA 1: GGCGGGGCGGAGCCATGCGCCCCCCCCTTT
DNA 2: AAAGGGGGGGGCGCATGGCTCCGCCCCGCC
Turning to B1, the binding result is on record as “binds”.

B2: Control random DNA (dsDNA)
DNA 1: TCGAAGTCGAAGCATGGGTCGAAGCATGGG
DNA 2: CCCATGCTTCGACCCATGCTTCGACTTCGA
With B2, the binding result was “no binding”.

B3: Telomere [TTAGGG]5 (dsDNA)
DNA 1: TTAGGGTTAGGGTTAGGGTTAGGGTTAGGG
DNA 2: CCCTAACCCTAACCCTAACCCTAACCCTAA
On to B3, for which the binding result was “binds”.
